Square brackets hold non-standard residues; d marks the D form. Ends that are not written are not given here.
T1: GIP receptor
T1 sequence (P48546 whole entry, species assumed, looked up): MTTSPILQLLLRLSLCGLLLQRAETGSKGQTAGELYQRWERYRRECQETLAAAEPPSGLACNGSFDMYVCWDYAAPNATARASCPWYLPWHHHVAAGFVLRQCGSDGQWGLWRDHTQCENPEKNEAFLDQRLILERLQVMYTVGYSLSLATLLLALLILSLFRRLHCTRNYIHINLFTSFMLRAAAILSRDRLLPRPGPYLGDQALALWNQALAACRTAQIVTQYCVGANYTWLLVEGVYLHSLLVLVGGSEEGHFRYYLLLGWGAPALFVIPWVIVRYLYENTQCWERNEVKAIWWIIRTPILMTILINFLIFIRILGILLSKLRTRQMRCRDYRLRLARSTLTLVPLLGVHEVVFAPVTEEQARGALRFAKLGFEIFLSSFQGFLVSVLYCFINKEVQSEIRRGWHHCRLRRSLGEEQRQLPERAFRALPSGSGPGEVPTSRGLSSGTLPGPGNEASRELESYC

T2: GLP-1 receptor, P32301
T2 chain: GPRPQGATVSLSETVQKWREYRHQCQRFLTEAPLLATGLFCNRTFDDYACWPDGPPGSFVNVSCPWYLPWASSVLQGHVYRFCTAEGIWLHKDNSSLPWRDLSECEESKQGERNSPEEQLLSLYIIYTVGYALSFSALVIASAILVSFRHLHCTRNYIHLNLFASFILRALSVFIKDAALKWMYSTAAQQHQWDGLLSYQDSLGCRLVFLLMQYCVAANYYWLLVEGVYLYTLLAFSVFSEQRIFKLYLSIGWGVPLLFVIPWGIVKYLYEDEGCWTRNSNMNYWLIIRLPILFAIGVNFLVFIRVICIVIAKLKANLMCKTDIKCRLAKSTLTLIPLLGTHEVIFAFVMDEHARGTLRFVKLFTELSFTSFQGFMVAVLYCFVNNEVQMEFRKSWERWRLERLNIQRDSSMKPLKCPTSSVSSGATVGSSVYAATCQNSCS

B1: 0601GIP4233, [dAla2] GIP-(1-30)-fGLP-1v2-(31-37) (peptide)
peptide: Y[dA]EGTFISDYSIAMDKIHQQDFVNWLLAQKPKKIRYS
B2: 0601GIP3794, (D-Ala2)GIP(1-30)-… amide form (peptide)
peptide: YAEGTFISDYSIAMDKIHQQDFVNWLLAQKPSSGAPPPS
modifications: not checked

Experiments:
GIP receptor = molecular target: T1, GIP receptor; experiment: GIP receptor binding assay
GLP-1 receptor, P32301 = molecular target: T2, GLP-1 receptor, P32301; experiment: GLP-1 receptor binding, displacement of [125I]GLP-1 on RINm5F cell membranes

Binder | GIP RBA (GIP receptor) [nM] | GLP RBA (GLP-1 receptor, P32301)
B1 | 0.1 | 
B2 |  | 1000
